Assay results from paper PMC9367177.
Like-named read-outs stand apart in the source and are kept apart here.

Legend:
[1] = target: SARS-CoV-2 RBD (Wuhan-1) (SARS-CoV-2, Wuhan-1) (UniProt P0DTC2); assay: SPR
[2] = target: SARS-CoV-2 RBD (Wuhan-1) (SARS-CoV-2, Wuhan-1) (UniProt P0DTC2); assay: SPR; remark: listed apart in the source

CC12.1 (antibody) was tested, and the Kd [1] was 5.92 nM, the koff [1] was 0.00412 s⁻¹ and the kon [1] was 695000 M⁻¹ s⁻¹. The kon [2] was 696000 M⁻¹ s⁻¹.
